The target of experiment [1] is T1, human BMP6 (R&D Systems, Cat #507-BP) (human, UniProt P22004 375-513, limits assumed).
T1 construct: Bought protein (R&D Systems 507-BP or 507-BP/CF); also called hBMP6; hBMP-6
T1 sequence: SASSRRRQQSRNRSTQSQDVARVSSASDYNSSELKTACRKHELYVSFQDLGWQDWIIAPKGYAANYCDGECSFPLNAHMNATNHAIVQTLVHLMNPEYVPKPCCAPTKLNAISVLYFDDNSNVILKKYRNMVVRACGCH
Nature of the experiment: SPR (MASS-1), mAb captured on anti-human Fc, hBMP6 in solution, 37 C. Here is the method: (§1) Equilibrium dissociation constants (KD values) for human and mouse BMP6 binding to purified anti-BMP6 monoclonal antibodies of this invention were determined using a real-time surface plasmon resonance (SPR) biosensor instrument, MASS-1. All binding studies were performed in 10 mM HEPES, 150 mM NaCl, 3 mM EDTA, 1 μg/mL Heparin, and 0.05% v/v Surfactant Tween-20, pH 7.4 (HBS-EHT) running buffer at 25° C. and 37° C. The HCA sensor surface was first derivatized by amine coupling the monoclonal mouse anti-human Fc antibody (GE, #BR100839) and anti-BMP6 monoclonal antibodies were individually captured. Different concentrations of human BMP6 reagents (hBMP6; R&D Systems, Cat #507-BP; 60 nM-0.94 nM; 4-fold serial dilution) or mouse BMP6 (mBMP6; R&D Systems, Cat #6325-BM; 60 nM and 15 nM) prepared in HBS-EHT running buffer were injected over the captured anti-BMP6 monoclonal antibody for 4 minutes at a flow rate of 30 μL/minute, while the dissociation of BMP6 reagent bound to captured anti-BMP6 monoclonal antibody was monitored for 10 minutes in HBS-EHT running buffer. Kinetic association (kₐ) and dissociation (kd) rate constants were determined by fitting the real-time binding sensorgrams to a 1:1 binding model with mass transport limitation using Scrubber 2.0c software. Binding dissociation equilibrium constant (KD) and dissociative half-life (t½) for different anti-BMP6 monoclonal antibodies were calculated from the kinetic rate constants as: […]

The target in experiment [2] is T1, human BMP6 (R&D Systems, Cat #507-BP). Nature of the experiment: SPR (MASS-1), mAb captured on anti-human Fc, hBMP6 in solution, 25 C. Here is the method:
as §1

Experiment [3] has as its target T2, mouse BMP6 (R&D Systems, Cat #6325-BM) (mouse, UniProt P20722 372-510, limits assumed).
T2 construct: Bought protein (R&D Systems 6325-BM or 6325-BM/CF); also called mBMP6
T2 sequence: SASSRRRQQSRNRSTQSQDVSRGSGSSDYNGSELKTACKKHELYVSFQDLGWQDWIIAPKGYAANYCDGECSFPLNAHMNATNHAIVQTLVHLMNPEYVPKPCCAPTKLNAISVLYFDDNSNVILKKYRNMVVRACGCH
The experiment in a line: SPR (MASS-1), mAb captured on anti-human Fc, mBMP6 in solution, 37 C. Here is the method: as §1

In a further experiment the target is T3, Human BMP7 (human, UniProt P18075 293-431).
T3 sequence (looked up): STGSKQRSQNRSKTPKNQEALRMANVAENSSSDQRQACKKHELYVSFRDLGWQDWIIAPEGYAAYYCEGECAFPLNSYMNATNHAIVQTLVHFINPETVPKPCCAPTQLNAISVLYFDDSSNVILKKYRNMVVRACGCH
Nature of the experiment: BLI (Octet HTX), mAb captured on Protein A sensor, 100 nM ligand, 25 C. Here is the method: (§2) Binding cross-reactivity of anti-BMP6 monoclonal antibodies to BMP6 family members, (Human: BMP6, BMP5, BMP7, BMP8A, BMP9, BMP10, BMP12, BMP14, BMP3b, Activin A, and GDF3 and mouse: BMP6 and GDF6) was determined using a real-time Bio-Layer Interferometry (BLI) biosensor using Octet HTX instrument. All binding studies were performed in 10 mM HEPES, 150 mM NaCl, 3 mM EDTA, 1 mg/mL BSA, 50 μg/mL Heparin, and 0.05% v/v Surfactant Tween-20, pH 7.4 (HBS-EBHT) buffer at 25° C. with the plate shaking at a speed of 1000 rpm. To assess binding cross-reactivity, Protein A coated Octet biosensor (Pall ForteBio Corp., #18-5010) was first dipped in wells containing […] of anti-BMP6 monoclonal antibodies for 4 minutes followed by submerging in wells containing 100 nM of different BMP6 family members for 4 minutes. The biosensors were washed in HBS-EBHT buffer in between every step of the experiment. At the end of each cycle, the Protein A biosensor was regenerated using three alternate 5 second dips in 10 mM Glycine pH 2.0 and 10 second dip HBS-EBHT buffer. The real-time binding response was monitored during the course of the experiment and the binding response at the end of every step was recorded and tabulated as shown in Tables 8A and 8B.
(In general: BLI is a label-free optical method that tracks binding on a fibre tip over time.)

The next experiment concerns the target T4, Human BMP9 (human, UniProt Q9UK05 320-429).
T4 sequence (looked up): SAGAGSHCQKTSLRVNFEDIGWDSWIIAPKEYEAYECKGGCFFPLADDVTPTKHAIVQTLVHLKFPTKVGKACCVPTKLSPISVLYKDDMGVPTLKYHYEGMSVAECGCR
The experiment is described as above. Here is the method: as §2

The next experiment addresses T5, Mouse GDF6 (mouse, UniProt P43028 335-454, limits assumed).
T5 sequence (looked up): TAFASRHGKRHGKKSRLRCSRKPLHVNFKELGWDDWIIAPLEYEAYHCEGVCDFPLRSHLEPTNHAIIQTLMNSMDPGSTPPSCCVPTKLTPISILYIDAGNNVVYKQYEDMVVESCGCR
The description is as above. Here is the method:
as §2

Another experiment has as its target T6, Human BMP8A (human, UniProt Q7Z5Y6 264-402, limits assumed).
T6 sequence (looked up): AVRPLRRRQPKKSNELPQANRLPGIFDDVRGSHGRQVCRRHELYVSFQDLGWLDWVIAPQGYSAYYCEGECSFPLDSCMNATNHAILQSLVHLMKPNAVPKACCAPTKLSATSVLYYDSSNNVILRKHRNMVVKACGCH
The experiment is described as above. Here is the method: as §2

The kon is the second-order rate constant of association. Usually koff stands for the first-order rate constant of dissociation. Read a low koff as a long-lived complex. As a reminder, the Kd is the concentration at which binding is half-saturated.

B1: H4H17871P (antibody, V domains shown)
VH: EVQLVESGGGLVQPGGSLRLSCAASGFTFNNYAMSWVRQAPGKGLEWVSAISGSGDSTYYADSVKGRFTISRDNSKNTLYLQMNSLRAEDTAVYYCAKRSRSSPFDPWGQGTLVTVSS
VL: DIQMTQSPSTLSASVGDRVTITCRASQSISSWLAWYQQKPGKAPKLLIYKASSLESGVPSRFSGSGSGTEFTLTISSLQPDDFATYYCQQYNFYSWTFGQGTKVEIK
notes: Fully human antibody; also called anti-BMP6 monoclonal antibody; BMP6 antibody of the invention
In the case of B1, the kon in experiment [1] was determined as 41600 M⁻¹ s⁻¹; in experiment [2], 283000 M⁻¹ s⁻¹; in experiment [3], 23500 M⁻¹ s⁻¹. In addition, the results for the koff in experiment [2] and in experiment [3] were 4.14e-05 s⁻¹ and 9.43e-05 s⁻¹, respectively. Also, the t1/2 in experiment [2] came to 4.65 h; in experiment [3] it was 2.05 h. In addition, in experiment [3], the Kd came out at 4 nM. The binding response is 0 nm with Human BMP7, 0.01 nm with Human BMP9, -0.02 nm with Mouse GDF6 and 0 nm with Human BMP8A.

B2: H4H17855P (antibody, V domains shown)
VH: EVQLVESGGGLVQPGGSLRLSCAASGFTFSSYAMSWVRQAPGKGLEWVSAISGSGGRTYYTDSVKGRFTMSRDNSKNTLYLQMNSLRAEDTAVYYCAKRPYNSPFDPWGQGTLVTVSS
VL: EIVLTQSPGTLSLSPGEGATLSCRASQSVSSSYLAWYQQKPGQAPRLLIYGASSRATGIPDRFSGSGSGTDFTLTISRLEPEDFVVYYCQHFGGTPFTFGGGTKVEIK
notes: as for B1
Turning to B2, the Kd in experiment [1] stood at 1.34 nM; in experiment [2], 0.355 nM; in experiment [3], 6.46 nM. Moreover, the kon in experiment [1] amounted to 61100 M⁻¹ s⁻¹; in experiment [2], 178000 M⁻¹ s⁻¹; in experiment [3], 23800 M⁻¹ s⁻¹. Moreover, the t1/2 in experiment [1] was determined as 2.35 h; in experiment [2], 3.05 h; in experiment [3] it was 1.25 h. Besides, the koff in experiment [2] was determined as 6.3e-05 s⁻¹; in experiment [3] it was 0.000154 s⁻¹. In addition, the binding response in the experiment with Human BMP7 was 0.05 nm; in the experiment with Human BMP9, 0 nm; with Mouse GDF6, -0.02 nm; with Human BMP8A, -0.02 nm.

The record behind these values is US20220251184A1 (Regeneron, published 2022).
